Measurements published in publication PMC3874162 (Nucleic Acids Research, 2013).
Where a chain is given by its changes, count along the chain named.

Experiments:
[1] = target: T1, Cdc13-Y561A (Saccharomyces cerevisiae, UniProt P32797 1-924, Y561A); experiment: EMSA
T1 sequence: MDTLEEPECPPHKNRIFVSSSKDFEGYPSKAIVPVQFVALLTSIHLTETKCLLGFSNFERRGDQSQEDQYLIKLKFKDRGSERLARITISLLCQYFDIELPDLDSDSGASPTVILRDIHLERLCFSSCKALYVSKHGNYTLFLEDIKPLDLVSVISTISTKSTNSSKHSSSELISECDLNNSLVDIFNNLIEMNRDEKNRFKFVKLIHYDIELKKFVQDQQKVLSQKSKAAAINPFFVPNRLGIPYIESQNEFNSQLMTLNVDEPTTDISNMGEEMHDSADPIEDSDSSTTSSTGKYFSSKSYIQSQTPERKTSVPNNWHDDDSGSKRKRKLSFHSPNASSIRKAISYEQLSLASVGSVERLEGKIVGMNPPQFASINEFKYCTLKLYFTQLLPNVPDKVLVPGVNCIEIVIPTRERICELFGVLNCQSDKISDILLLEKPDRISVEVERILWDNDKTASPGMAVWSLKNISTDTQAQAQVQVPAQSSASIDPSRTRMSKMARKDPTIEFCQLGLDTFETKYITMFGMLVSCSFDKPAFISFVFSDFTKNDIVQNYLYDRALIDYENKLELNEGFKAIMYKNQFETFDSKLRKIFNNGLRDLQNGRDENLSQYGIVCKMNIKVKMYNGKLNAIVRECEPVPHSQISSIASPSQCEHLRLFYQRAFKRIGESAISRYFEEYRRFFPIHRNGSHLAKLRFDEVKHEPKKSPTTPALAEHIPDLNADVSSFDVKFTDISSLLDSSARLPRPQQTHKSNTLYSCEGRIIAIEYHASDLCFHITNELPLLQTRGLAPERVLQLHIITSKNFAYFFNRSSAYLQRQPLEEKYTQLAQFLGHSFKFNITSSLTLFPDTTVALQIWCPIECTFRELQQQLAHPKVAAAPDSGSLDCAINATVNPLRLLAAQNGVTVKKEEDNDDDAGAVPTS

[2] = target: T2, Cdc13-DBD (Saccharomyces cerevisiae, UniProt P32797 497-694); experiment: filter binding
T2 sequence: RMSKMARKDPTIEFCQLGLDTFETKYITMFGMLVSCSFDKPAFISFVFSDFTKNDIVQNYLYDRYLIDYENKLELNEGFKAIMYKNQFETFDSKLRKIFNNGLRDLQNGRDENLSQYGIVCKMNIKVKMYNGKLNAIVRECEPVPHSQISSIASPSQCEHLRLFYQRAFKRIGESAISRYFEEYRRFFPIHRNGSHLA

[3] = target: T3, Cdc13 (Saccharomyces cerevisiae, UniProt P32797 1-924); experiment: filter binding
T3 sequence: T1 sequence with A561Y

B1: Tel11 (ssDNA)
DNA: GTGTGGGTGTG
Question: Which Kd [1] does the source give for B1 here?
Answer: Its Kd is 0.017 ± 0.001 nM.

Question: And the Kd [2]?
Answer: The Kd was 0.21 ± 0.02 nM.

Question: And the Kd [3]?
Answer: Its Kd is 0.41 ± 0.04 nM.
